Where a chain is given by its changes, count along the chain named. Names and notes keep the numbering of the source. Values joined by “and” are separate entries in the source; they are usually repeats but may differ in a detail not shown here. Equal values may be shown once.
B1: PrimPol_(514-528) peptide (peptide, UniProt Q96LW4 514-528, looked up)
peptide: DNGIDDAYFLEATED
notes: PrimPol, human, residues 514-528 (RBM-A), 15-mer; also called RBM-A peptide residues (PrimPol_(514-528)); 15-mer PrimPol_(514-528) peptide; source: synthetic peptide (Genscript), used as supplied
B2: PrimPol RBD RBM-B knockout (480-546 truncation) (domain or fragment, human, UniProt Q96LW4 480-546, looked up)
chain: TTDEADETRSNETQNPHKPSPSRLSTGASADAVWDNGIDDAYFLEATEDAELAEAAENSLLSYNSEV
notes: PrimPol, human, residues 480-546 (RBD without RBM-B); also called PrimPol_(B-KO); RBD_(B-KO); source: E. coli BL21(pLysS), purified (Ni Sepharose, Q Sepharose, gel filtration)
B3: PrimPol RPA-binding domain (PrimPol_(480-560)) (domain or fragment, human, UniProt Q96LW4 480-560, looked up)
chain: TTDEADETRSNETQNPHKPSPSRLSTGASADAVWDNGIDDAYFLEATEDAELAEAAENSLLSYNSEVDEIPDELIIEVLQE
notes: 15N-enriched for one NMR sample; also called PrimPolRBD; RBD; source: E. coli BL21(pLysS), purified (Ni Sepharose, Q Sepharose, Superdex 75)
B4: PrimPol RBD RBM-A knockout (D514R/D518R/D519R) (domain or fragment, human, UniProt Q96LW4 480-560, looked up)
chain: B3 chain with D35R, D39R, D40R
notes: PrimPol, human, RBD residues 480-560 with D514R, D518R, D519R; also called PrimPol_(A-KO); RBD_(A-KO); source: E. coli BL21(pLysS), purified (Ni Sepharose, Q Sepharose, gel filtration)
B5: RPA70N (RPA70 residues 1-120) (domain or fragment, human, UniProt P27694 1-120, looked up)
chain: MVGQLSEGAIAAIMQKGDTNIKPILQVINIRPITTGNSPPRYRLLMSDGLNTLSSFMLATQLNPLVEEEQLSSNCVCQIHRFIVNTLKDGRRVVILMELEVLKSAEAVGVKIGNPVPYNE
notes: RPA70 (replication protein A 70 kDa subunit), human, N-terminal domain, residues 1-120; pET15b construct; 15N-enriched for some NMR samples; also called RPA70_(1-120); RPA70N domain of RPA70; source: E. coli BL21 (DE3), purified (HisTrap, thrombin cleavage, Superdex 75)
B6: RPA70N^E7R (domain or fragment, human, UniProt P27694 1-120, looked up)
chain: B5 chain with E7R
notes: RPA70, human, N-terminal domain, residues 1-120, with E7R (variant optimised for crystallisation of complexes); source: E. coli BL21 (DE3), purified (HisTrap, thrombin cleavage, Superdex 75)
B7: RBM-A peptide (RBM-A_(510-528)) (peptide, UniProt Q96LW4 510-528, looked up)
peptide: DAVWDNGIDDAYFLEATED
notes: source: synthetic peptide (GenScript), HPLC purified

Experiments:
Conditions in all cases: both partners purified
RPA70N^E7R = biological target: B6; test: crystal structure; co-crystals by sitting-drop vapour diffusion at 293 K; RPA70N E7R with PrimPol 514-528 peptide (2.5:1 peptide:protein) or with PrimPol 480-560 (1:1)
[1] = biological target: B5; test: ITC; MicroCal VP-ITC; 400 uM PrimPol RBD (WT or variants) injected into 20 uM RPA70N; 20 mM HEPES pH 7.5, 80 mM NaCl, 3 mM beta-mercaptoethanol; single-site model
[2] = biological target: B5; test: NMR titration; 15N-1H HSQC at 25 C; 100 uM 15N-enriched RPA70N or 15N-enriched PrimPol 480-560 alone and with 200 uM unlabelled partner; 20 mM HEPES pH 7.5, 80 mM NaCl, 2 mM DTT
[3] = biological target: B3; test: SEC; analytical gel filtration, Superdex S75 10/300 GL, 50 mM Tris-HCl pH 7.5, 100 mM NaCl, 2 mM TCEP; 0.5 ml loaded at 35 uM; binding read from a shift of the peaks
[4] = biological target: B3; test: SEC-MALS; Superdex 75 increase 10/300 GL, 20 mM HEPES pH 7.1, 80 mM NaCl, 0.5 mM TCEP; RBD at 185 uM with RPA70N E7R at 0, 1, 2 and 4 x molar ratios

Binder: B1
binding result (RPA70N^E7R): binds

Binder: B2
Kd [1]: 6.7 ± 1.5 µM

Binder: B3
binding result (RPA70N^E7R): binds
binding result [2]: binds

Binder: B4
Kd [1]: 7.8 ± 0.6 µM

Binder: B5
stoichiometry N [3]: 2 RPA70N per PrimPolRBD

Binder: B6
stoichiometry N [4]: 1 RPA70N per PrimPolRBD and 2 RPA70N per PrimPolRBD

Binder: B7
binding result [2]: binds
